Source: patent publication US10233249B2, “Antibodies and methods for treating estrogen receptor-associated diseases” (BEIJING SHENOGEN PHARMA GROUP LTD., priority 2013, dated 2019)
“Also recorded” adds a separate entry of the source.

Assays:
[1] = molecular target: T1, ER-α36 (Homo sapiens, UniProt P03372, I452L); assay: ELISA binding specificity of SNGmB1; details: plate coated at 1 μg/ml, antibody 0.004-10 μg/ml
T1 construct: made in house; host or cells: E. coli BL21 (DE3)
T1 sequence (P03372 166-310 isoform P03372-4 I279L): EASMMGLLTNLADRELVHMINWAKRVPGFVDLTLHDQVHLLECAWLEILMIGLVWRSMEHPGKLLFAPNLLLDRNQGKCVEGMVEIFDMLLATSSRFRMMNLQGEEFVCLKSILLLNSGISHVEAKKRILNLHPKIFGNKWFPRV
Description: (§1) The binding specificity of SNGmB1 was assessed using ELISA assay. Five different proteins were used to coat the assay plate at 1 μg/ml. After extensive blocking, the SNGmB1 antibody of different concentrations (10, 2, 0.4, 0.08 and 0.016, 0.004 μg/ml) was added to the assay plate and incubated for 1.5 hours, followed by detection of complex formation using HRP (horse radish peroxidase) labeled anti-mouse IgG Fc (Invitrogen). An example of the data was shown below in FIG. 3. […] The key epitope residues in ER-α36 F domain for SNGmB1 binding have been mapped using both PepScan and Alanine Scan (see Example 5).

[2] = molecular target: T2, stable 3T3 cell lines induced to express human ER-α36 protein (Homo sapiens, UniProt P03372, I452L); assay: FACS analysis of binding to inducible 3T3 cell lines; details: mouse IgG2b isotype control
T2 construct: expressed in transfected cells
T2 sequence (P03372 1-310 isoform P03372-4 I279L): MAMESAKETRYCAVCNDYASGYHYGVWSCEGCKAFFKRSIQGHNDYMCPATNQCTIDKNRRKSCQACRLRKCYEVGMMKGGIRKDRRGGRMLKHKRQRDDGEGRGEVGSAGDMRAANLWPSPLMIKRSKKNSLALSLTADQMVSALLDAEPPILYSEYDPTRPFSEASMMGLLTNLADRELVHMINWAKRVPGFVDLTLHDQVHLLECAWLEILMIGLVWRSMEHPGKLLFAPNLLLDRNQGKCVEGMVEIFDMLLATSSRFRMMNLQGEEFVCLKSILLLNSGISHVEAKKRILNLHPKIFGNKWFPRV

[3] = molecular target: T3, membrane bound ER-α36 protein in MCF-7 cells (Homo sapiens, UniProt P03372); assay: Immunofluorescence analysis of MCF-7 mammosphere; format: cell-based
T3 construct: endogenous in cells; host or cells: MCF7
T3 sequence (P03372 1-310 isoform P03372-4): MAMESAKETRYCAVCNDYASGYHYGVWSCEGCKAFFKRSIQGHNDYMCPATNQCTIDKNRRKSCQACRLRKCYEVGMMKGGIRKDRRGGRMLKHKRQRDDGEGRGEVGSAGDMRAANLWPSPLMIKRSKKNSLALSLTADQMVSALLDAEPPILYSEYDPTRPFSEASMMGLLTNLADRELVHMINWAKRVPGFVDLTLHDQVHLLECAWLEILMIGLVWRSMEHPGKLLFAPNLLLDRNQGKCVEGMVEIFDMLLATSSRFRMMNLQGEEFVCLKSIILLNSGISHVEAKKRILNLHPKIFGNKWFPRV
Description: The ability of SNGmB1 to detect membrane bound ER-α36 protein in MCF-7 cells was assessed using immunostaining. MCF-7 mammosphere was formed and immunostaining was performed by steps as follows:
1. MCF-7 cells were cultured in DMEM without phenol red for 2 days and stained with 7-aminoactinomycin D (7-AAD) followed by FACS sorting. The sorted cells were cultured in DMEM/F12 without phenol red medium (Gibo) with B27 (Invitrogen), EGF (BD Biosciences) and bFGF (BD Biosciences) for 6 days and the MCF-7 mammosphere was formed. 2. MCF-7 mammosphere was centrifuged at 1000 rpm for 4 min, and the supernatant was removed. 3. The mammosphere was washed with 500 μl PBS and was transferred to a 1.5 ml EP tube before centrifugation at 1000 rpm for 4 min, and the supernatant was discarded. 4. The precipitate was fixed with 500 μl paraformaldehyde (4%) for 20 min (or overnight), and was centrifuged at 1000 rpm for 4 min to move the supernatant. 5. The precipitate was washed with 500 μl PBS and centrifuged at 1000 rpm for 4 min, and the supernatant was discarded, wash three times using PBS. 6. The supernatant was removed and the precipitate was incubated with 50 μl goat serum blocking solution at 37° C. for 30 min; after centrifugation at 1000 rpm for 4 min, the supernatant was discarded. 7. […] The mammospheres was transferred to small observation dish, and stored at 4° C. to be detected.

[4] = molecular target: T4, ER-α36 (Homo sapiens, UniProt P03372); assay: ELISA binding specificity of SNGmB1; parameters: made in house; host or cells: E. coli BL21 (DE3); details: plate coated at 1 μg/ml, antibody 0.004-10 μg/ml
T4 sequence (P03372 284-310 isoform P03372-4): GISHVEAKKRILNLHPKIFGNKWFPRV
Description: as §1

B1: SNGmB1: mouse monoclonal anti-ER-α36 antibody (mIgG2b), light chain SEQ ID NO: 16, heavy chain SEQ ID NO: 18 (antibody, listed as Mus musculus)
heavy: QAYLQQSGAELVRPGASVKMSCKASGYTFTSHNMHWIKQTPRQGLEWIGAIHPVNGDTAYNQKFKGKATLTVDKSSSTAYLQLSSLTSEESAVYFCAREGYGSVDYWGQGTTLTVSSAKTTPPSVYPLAPGCGDTTGSSVTLGCLVKGYFPESVTVTWNSGSLSSSVHTFPALLQSGLYTMSSSVTVPSSTWPSQTVTCSVAHPASSTTVDKKLEPSGPISTINPCPPCKECHKCPAPNLEGGPSVFIFPPNIKDVLMISLTPKVTCVVVDVSEDDPDVQISWFVNNVEVHTAQTQTHREDYNSTIRVVSTLPIQHQDWMSGKEFKCKVNNKDLPSPIERTISKIKGLVRAPQVYILPPPAEQLSRKDVSLTCLVVGFNPGDISVEWTSNGHTEENYKDTAPVLDSDGSYFIYSKLNMKTSKWEKTDSFSCNVRHEGLKNYYLKKTISRSPGK
light: ETTVTQSPASLSMTIGEKVTIRCITSTDIDDDMNWYRKKPGQPPKLLISEGNTLRPGVPSRFSSSGYGTDFVFTIENMLSEDVADYYCLQSDNLPLTFGAGTKLELKRADAAPTVSIFPPSSEQLTSGGASVVCFLNNFYPKDINVKWKIDGSERQNGVLNSWTDQDSKDSTYSMSSTLTLTKDEYERHNSYTCEATHKTSTSPIVKSFNRNEC
binding to Fc-LBD protein [1]: bind to
binding to 3T3 cell line induced to express human ER-α36 (FACS) [2]: specifically bound
immunostaining of membrane bound ER-α36 on MCF-7 mammospheres [3]: stained the MCF-7 mammospheres in a dose-dependent manner; also recorded: can detect membrane bound ER-α36 on MCF7
binding to 27-amino acid peptide derived from the F domain of ER-α36 ("peptide") [4]: bind to
